# Bridges are numbered along the chain shown (N, C = ends). Where no end group is shown, it is not given here. Side-chain parts run from the residue outwards. The star is where a group is joined. X2 = (S)‑4‑Carboxy‑4‑(19-carboxynonadecanoylamino)butyryl, O=C(O)CCCCCCCCCCCCCCCCCCC(=O)N[C@@H](CCC(=O)*)C(=O)O; C20 diacid = O=C(O)CCCCCCCCCCCCCCCCCCC(=O)*
# T1: Amylin 3(a) receptor (human calcitonin receptor (CTa) with RAMP-3) (human, UniProt P30988 25-474; O60896 24-148, limits assumed)
# T1 sequence (looked up) 1: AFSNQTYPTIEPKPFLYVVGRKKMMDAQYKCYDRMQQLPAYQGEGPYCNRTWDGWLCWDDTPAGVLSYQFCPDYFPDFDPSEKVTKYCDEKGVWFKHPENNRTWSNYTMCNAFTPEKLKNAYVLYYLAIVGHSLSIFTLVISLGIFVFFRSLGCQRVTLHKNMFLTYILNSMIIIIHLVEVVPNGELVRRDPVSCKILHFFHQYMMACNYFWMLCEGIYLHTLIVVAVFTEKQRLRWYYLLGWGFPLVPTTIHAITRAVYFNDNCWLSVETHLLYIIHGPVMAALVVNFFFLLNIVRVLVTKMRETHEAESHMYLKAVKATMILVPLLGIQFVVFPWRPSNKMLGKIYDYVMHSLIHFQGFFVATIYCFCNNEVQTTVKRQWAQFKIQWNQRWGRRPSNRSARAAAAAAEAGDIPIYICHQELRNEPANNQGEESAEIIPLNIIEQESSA
# T1 sequence (looked up) 2: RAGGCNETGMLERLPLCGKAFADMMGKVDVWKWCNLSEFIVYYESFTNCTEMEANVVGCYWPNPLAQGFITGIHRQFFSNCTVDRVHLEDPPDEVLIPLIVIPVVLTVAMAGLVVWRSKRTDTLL
# B1: N-alpha-[(S)-4-Carboxy-4-(19-carboxynonadecanoylamino)butyryl]-Arg-[Pro17]-pramlintide (peptide)
# peptide: X2-RKCNTATCATQRLANFLPHSSNNFGPILPPTNVGSNTY-NH2
# modifications: disulfide 3-8
# SMILES: CC[C@H](C)[C@H](NC(=O)[C@@H]1CCCN1C(=O)CNC(=O)[C@H](Cc1ccccc1)NC(=O)[C@H](CC(N)=O)NC(=O)[C@H](CC(N)=O)NC(=O)[C@H](CO)NC(=O)[C@H](CO)NC(=O)[C@H](Cc1c[nH]cn1)NC(=O)[C@@H]1CCCN1C(=O)[C@H](CC(C)C)NC(=O)[C@H](Cc1ccccc1)NC(=O)[C@H](CC(N)=O)NC(=O)[C@H](C)NC(=O)[C@H](CC(C)C)NC(=O)[C@H](CCCNC(=N)N)NC(=O)[C@H](CCC(N)=O)NC(=O)[C@@H](NC(=O)[C@H](C)NC(=O)[C@@H]1CSSC[C@H](NC(=O)[C@H](CCCCN)NC(=O)[C@H](CCCNC(=N)N)NC(=O)CC[C@H](NC(=O)CCCCCCCCCCCCCCCCCCC(=O)O)C(=O)O)C(=O)N[C@@H](CC(N)=O)C(=O)N[C@@H]([C@@H](C)O)C(=O)N[C@@H](C)C(=O)N[C@@H]([C@@H](C)O)C(=O)N1)[C@@H](C)O)C(=O)N[C@@H](CC(C)C)C(=O)N1CCC[C@H]1C(=O)N1CCC[C@H]1C(=O)N[C@H](C(=O)N[C@@H](CC(N)=O)C(=O)N[C@H](C(=O)NCC(=O)N[C@@H](CO)C(=O)N[C@@H](CC(N)=O)C(=O)N[C@H](C(=O)N[C@@H](Cc1ccc(O)cc1)C(N)=O)[C@@H](C)O)C(C)C)[C@@H](C)O
# B2: N-alpha-[(S)-4-Carboxy-4-(19-carboxynonadecanoylamino)butyryl]-Arg-[Ser17]-pramlintide (peptide)
# peptide: X2-RKCNTATCATQRLANFLSHSSNNFGPILPPTNVGSNTY-NH2
# modifications: disulfide 3-8
# SMILES: CC[C@H](C)[C@H](NC(=O)[C@@H]1CCCN1C(=O)CNC(=O)[C@H](Cc1ccccc1)NC(=O)[C@H](CC(N)=O)NC(=O)[C@H](CC(N)=O)NC(=O)[C@H](CO)NC(=O)[C@H](CO)NC(=O)[C@H](Cc1c[nH]cn1)NC(=O)[C@H](CO)NC(=O)[C@H](CC(C)C)NC(=O)[C@H](Cc1ccccc1)NC(=O)[C@H](CC(N)=O)NC(=O)[C@H](C)NC(=O)[C@H](CC(C)C)NC(=O)[C@H](CCCNC(=N)N)NC(=O)[C@H](CCC(N)=O)NC(=O)[C@@H](NC(=O)[C@H](C)NC(=O)[C@@H]1CSSC[C@H](NC(=O)[C@H](CCCCN)NC(=O)[C@H](CCCNC(=N)N)NC(=O)CC[C@H](NC(=O)CCCCCCCCCCCCCCCCCCC(=O)O)C(=O)O)C(=O)N[C@@H](CC(N)=O)C(=O)N[C@@H]([C@@H](C)O)C(=O)N[C@@H](C)C(=O)N[C@@H]([C@@H](C)O)C(=O)N1)[C@@H](C)O)C(=O)N[C@@H](CC(C)C)C(=O)N1CCC[C@H]1C(=O)N1CCC[C@H]1C(=O)N[C@H](C(=O)N[C@@H](CC(N)=O)C(=O)N[C@H](C(=O)NCC(=O)N[C@@H](CO)C(=O)N[C@@H](CC(N)=O)C(=O)N[C@H](C(=O)N[C@@H](Cc1ccc(O)cc1)C(N)=O)[C@@H](C)O)C(C)C)[C@@H](C)O
# B3: N-alpha-[(S)-4-Carboxy-4-(19-carboxynonadecanoylamino)butyryl]-Arg-[Gly17]-pramlintide (peptide)
# peptide: X2-RKCNTATCATQRLANFLGHSSNNFGPILPPTNVGSNTY-NH2
# modifications: disulfide 3-8
# SMILES: CC[C@H](C)[C@H](NC(=O)[C@@H]1CCCN1C(=O)CNC(=O)[C@H](Cc1ccccc1)NC(=O)[C@H](CC(N)=O)NC(=O)[C@H](CC(N)=O)NC(=O)[C@H](CO)NC(=O)[C@H](CO)NC(=O)[C@H](Cc1c[nH]cn1)NC(=O)CNC(=O)[C@H](CC(C)C)NC(=O)[C@H](Cc1ccccc1)NC(=O)[C@H](CC(N)=O)NC(=O)[C@H](C)NC(=O)[C@H](CC(C)C)NC(=O)[C@H](CCCNC(=N)N)NC(=O)[C@H](CCC(N)=O)NC(=O)[C@@H](NC(=O)[C@H](C)NC(=O)[C@@H]1CSSC[C@H](NC(=O)[C@H](CCCCN)NC(=O)[C@H](CCCNC(=N)N)NC(=O)CC[C@H](NC(=O)CCCCCCCCCCCCCCCCCCC(=O)O)C(=O)O)C(=O)N[C@@H](CC(N)=O)C(=O)N[C@@H]([C@@H](C)O)C(=O)N[C@@H](C)C(=O)N[C@@H]([C@@H](C)O)C(=O)N1)[C@@H](C)O)C(=O)N[C@@H](CC(C)C)C(=O)N1CCC[C@H]1C(=O)N1CCC[C@H]1C(=O)N[C@H](C(=O)N[C@@H](CC(N)=O)C(=O)N[C@H](C(=O)NCC(=O)N[C@@H](CO)C(=O)N[C@@H](CC(N)=O)C(=O)N[C@H](C(=O)N[C@@H](Cc1ccc(O)cc1)C(N)=O)[C@@H](C)O)C(C)C)[C@@H](C)O
# B4: N-alpha-[(S)-4-Carboxy-4-(19-carboxynonadecanoylamino)butyryl]-Arg-[Ala17]-pramlintide (peptide)
# peptide: X2-RKCNTATCATQRLANFLAHSSNNFGPILPPTNVGSNTY-NH2
# modifications: disulfide 3-8
# SMILES: CC[C@H](C)[C@H](NC(=O)[C@@H]1CCCN1C(=O)CNC(=O)[C@H](Cc1ccccc1)NC(=O)[C@H](CC(N)=O)NC(=O)[C@H](CC(N)=O)NC(=O)[C@H](CO)NC(=O)[C@H](CO)NC(=O)[C@H](Cc1c[nH]cn1)NC(=O)[C@H](C)NC(=O)[C@H](CC(C)C)NC(=O)[C@H](Cc1ccccc1)NC(=O)[C@H](CC(N)=O)NC(=O)[C@H](C)NC(=O)[C@H](CC(C)C)NC(=O)[C@H](CCCNC(=N)N)NC(=O)[C@H](CCC(N)=O)NC(=O)[C@@H](NC(=O)[C@H](C)NC(=O)[C@@H]1CSSC[C@H](NC(=O)[C@H](CCCCN)NC(=O)[C@H](CCCNC(=N)N)NC(=O)CC[C@H](NC(=O)CCCCCCCCCCCCCCCCCCC(=O)O)C(=O)O)C(=O)N[C@@H](CC(N)=O)C(=O)N[C@@H]([C@@H](C)O)C(=O)N[C@@H](C)C(=O)N[C@@H]([C@@H](C)O)C(=O)N1)[C@@H](C)O)C(=O)N[C@@H](CC(C)C)C(=O)N1CCC[C@H]1C(=O)N1CCC[C@H]1C(=O)N[C@H](C(=O)N[C@@H](CC(N)=O)C(=O)N[C@H](C(=O)NCC(=O)N[C@@H](CO)C(=O)N[C@@H](CC(N)=O)C(=O)N[C@H](C(=O)N[C@@H](Cc1ccc(O)cc1)C(N)=O)[C@@H](C)O)C(C)C)[C@@H](C)O
# B5: N-alpha-[(S)-4-Carboxy-4-(19-carboxynonadecanoylamino)butyryl]-Arg-[His17]-pramlintide (peptide)
# peptide: X2-RKCNTATCATQRLANFLHHSSNNFGPILPPTNVGSNTY-NH2
# modifications: disulfide 3-8
# SMILES: CC[C@H](C)[C@H](NC(=O)[C@@H]1CCCN1C(=O)CNC(=O)[C@H](Cc1ccccc1)NC(=O)[C@H](CC(N)=O)NC(=O)[C@H](CC(N)=O)NC(=O)[C@H](CO)NC(=O)[C@H](CO)NC(=O)[C@H](Cc1c[nH]cn1)NC(=O)[C@H](Cc1c[nH]cn1)NC(=O)[C@H](CC(C)C)NC(=O)[C@H](Cc1ccccc1)NC(=O)[C@H](CC(N)=O)NC(=O)[C@H](C)NC(=O)[C@H](CC(C)C)NC(=O)[C@H](CCCNC(=N)N)NC(=O)[C@H](CCC(N)=O)NC(=O)[C@@H](NC(=O)[C@H](C)NC(=O)[C@@H]1CSSC[C@H](NC(=O)[C@H](CCCCN)NC(=O)[C@H](CCCNC(=N)N)NC(=O)CC[C@H](NC(=O)CCCCCCCCCCCCCCCCCCC(=O)O)C(=O)O)C(=O)N[C@@H](CC(N)=O)C(=O)N[C@@H]([C@@H](C)O)C(=O)N[C@@H](C)C(=O)N[C@@H]([C@@H](C)O)C(=O)N1)[C@@H](C)O)C(=O)N[C@@H](CC(C)C)C(=O)N1CCC[C@H]1C(=O)N1CCC[C@H]1C(=O)N[C@H](C(=O)N[C@@H](CC(N)=O)C(=O)N[C@H](C(=O)NCC(=O)N[C@@H](CO)C(=O)N[C@@H](CC(N)=O)C(=O)N[C@H](C(=O)N[C@@H](Cc1ccc(O)cc1)C(N)=O)[C@@H](C)O)C(C)C)[C@@H](C)O
# B6: N-alpha-[(S)-4-Carboxy-4-(19-carboxynonadecanoylamino)butyryl]-Arg-[Arg17]-pramlintide (peptide)
# peptide: X2-RKCNTATCATQRLANFLRHSSNNFGPILPPTNVGSNTY-NH2
# modifications: disulfide 3-8
# SMILES: CC[C@H](C)[C@H](NC(=O)[C@@H]1CCCN1C(=O)CNC(=O)[C@H](Cc1ccccc1)NC(=O)[C@H](CC(N)=O)NC(=O)[C@H](CC(N)=O)NC(=O)[C@H](CO)NC(=O)[C@H](CO)NC(=O)[C@H](Cc1c[nH]cn1)NC(=O)[C@H](CCCNC(=N)N)NC(=O)[C@H](CC(C)C)NC(=O)[C@H](Cc1ccccc1)NC(=O)[C@H](CC(N)=O)NC(=O)[C@H](C)NC(=O)[C@H](CC(C)C)NC(=O)[C@H](CCCNC(=N)N)NC(=O)[C@H](CCC(N)=O)NC(=O)[C@@H](NC(=O)[C@H](C)NC(=O)[C@@H]1CSSC[C@H](NC(=O)[C@H](CCCCN)NC(=O)[C@H](CCCNC(=N)N)NC(=O)CC[C@H](NC(=O)CCCCCCCCCCCCCCCCCCC(=O)O)C(=O)O)C(=O)N[C@@H](CC(N)=O)C(=O)N[C@@H]([C@@H](C)O)C(=O)N[C@@H](C)C(=O)N[C@@H]([C@@H](C)O)C(=O)N1)[C@@H](C)O)C(=O)N[C@@H](CC(C)C)C(=O)N1CCC[C@H]1C(=O)N1CCC[C@H]1C(=O)N[C@H](C(=O)N[C@@H](CC(N)=O)C(=O)N[C@H](C(=O)NCC(=O)N[C@@H](CO)C(=O)N[C@@H](CC(N)=O)C(=O)N[C@H](C(=O)N[C@@H](Cc1ccc(O)cc1)C(N)=O)[C@@H](C)O)C(C)C)[C@@H](C)O
# Molecular target: T1, Amylin 3(a) receptor (human calcitonin …)
# Assay: cell-based or functional assay
row,Potency Luciferase [nM],Binder
1,2,B1
2,0.1,B2
3,0.1,B3
4,0.1,B4
5,0.08,B5
6,0.9,"KCK([Glu-Arg-Glu-Glu-C20 diacid])TATCATQRLANFLHHSSDNFGPILPPTNVGSNTY-NH2 (disulfide 2-7) [N-epsilon3-(19-carboxynonadecanoyl-Glu-Glu-Arg-Glu)-[Lys3,His17,Asp21]-pramlintide]"
7,0.1,B6

# — patent US20110105394A1 (Novo Nordisk, published 2011)
